Square brackets hold non-standard residues; d marks the D form. Ends that are not written are not given here. Met(O) = CS(=O)CC[C@H](N)C(=O)O
Target: T1, mouse ADAMTS7 (Mus musculus, UniProt Q68SA9)
T1 construct: Full-length mouse Adamts7 1-1857 (Uniprot Q68SA9, WT or E373Q catalytic mutant); expressed in transfected cells; host or cells: Human Coronary Artery Smooth Muscle Cells (HCA-SMC, Lonza), adenovirus 50 MOI
T1 sequence (Q68SA9 221-1657): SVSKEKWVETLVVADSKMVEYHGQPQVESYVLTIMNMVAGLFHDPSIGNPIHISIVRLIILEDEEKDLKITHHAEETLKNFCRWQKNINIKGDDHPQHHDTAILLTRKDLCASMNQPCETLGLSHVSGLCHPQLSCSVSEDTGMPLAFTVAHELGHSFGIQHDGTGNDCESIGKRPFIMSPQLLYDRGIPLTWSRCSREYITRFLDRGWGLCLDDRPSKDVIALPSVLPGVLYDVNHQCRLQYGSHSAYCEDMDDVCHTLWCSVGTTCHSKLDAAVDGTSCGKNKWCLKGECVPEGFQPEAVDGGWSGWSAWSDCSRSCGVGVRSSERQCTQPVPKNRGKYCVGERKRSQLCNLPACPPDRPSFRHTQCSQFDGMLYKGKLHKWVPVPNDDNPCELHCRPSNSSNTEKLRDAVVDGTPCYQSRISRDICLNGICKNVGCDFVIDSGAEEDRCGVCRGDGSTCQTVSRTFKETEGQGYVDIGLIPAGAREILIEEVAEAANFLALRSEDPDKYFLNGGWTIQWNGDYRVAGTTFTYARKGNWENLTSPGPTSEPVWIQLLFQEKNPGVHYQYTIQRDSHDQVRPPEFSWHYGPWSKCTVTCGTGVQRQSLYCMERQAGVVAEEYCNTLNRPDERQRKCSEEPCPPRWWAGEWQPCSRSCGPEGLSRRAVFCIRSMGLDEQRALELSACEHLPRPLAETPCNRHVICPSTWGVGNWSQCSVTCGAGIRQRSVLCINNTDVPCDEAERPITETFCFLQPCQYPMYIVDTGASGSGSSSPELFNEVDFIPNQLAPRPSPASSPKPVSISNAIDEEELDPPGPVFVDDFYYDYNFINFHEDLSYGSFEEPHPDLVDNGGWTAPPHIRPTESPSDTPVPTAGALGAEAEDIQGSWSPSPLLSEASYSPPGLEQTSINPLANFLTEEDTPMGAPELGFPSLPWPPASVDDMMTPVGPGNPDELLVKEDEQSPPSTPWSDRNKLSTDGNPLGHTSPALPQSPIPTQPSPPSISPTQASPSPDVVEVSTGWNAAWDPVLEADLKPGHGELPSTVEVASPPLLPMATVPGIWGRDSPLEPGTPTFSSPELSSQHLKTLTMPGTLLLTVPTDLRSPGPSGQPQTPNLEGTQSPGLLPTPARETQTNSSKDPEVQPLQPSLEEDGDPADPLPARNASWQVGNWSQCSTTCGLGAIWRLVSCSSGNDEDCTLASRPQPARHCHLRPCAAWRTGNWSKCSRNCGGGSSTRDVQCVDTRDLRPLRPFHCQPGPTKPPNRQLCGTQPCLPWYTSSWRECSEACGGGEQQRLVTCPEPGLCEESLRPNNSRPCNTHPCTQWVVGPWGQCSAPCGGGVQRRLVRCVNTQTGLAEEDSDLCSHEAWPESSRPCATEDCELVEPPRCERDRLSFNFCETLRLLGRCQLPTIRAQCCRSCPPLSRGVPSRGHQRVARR
Experiment: TMT10 TAILS N-terminomics, HUVEC experiment (process replicates, trypsin/AspN digest)
Type: cell-based, human
Details: HUVEC TAILS HC; log fold change of N-terminal peptide, Ad-mADAMTS7 WT over Luc
Outline: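 Full-length mouse ADAMTS7 (WT or E373Q mutant, C-terminal 3xFLAG) or luciferase was transduced via adenovirus, 50 MOI, into HCA-SMC (SMC1, SMC2) or HUVEC. SMC1: pooled media, technical triplicates 400 ug; SMC2: process triplicates 300 ug; HUVEC: process triplicates 200 ug, bFGF2 10 ng/ml.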

Substance | logFC.mWT.over.Luc
CTGF_174 (VVGPALAAYR; listed as Homo sapiens) | 2.13
PSAP_301 (LVEPIKKH; listed as Homo sapiens) | 2.38
ZYX_244 (PVSLANTQPR; listed as Homo sapiens) | 1.20
CLU_267 (FQHPPTEFIR; listed as Homo sapiens) | 1.56
BICD1_280 (NNDDKMNGHIHGPLVKLNGDYR; listed as Homo sapiens) | 1.23
LTBP2_129 (QQQPAPR; listed as Homo sapiens) | 4.83
LTBP3_164 (LSTGALPPLAPEG; listed as Homo sapiens) | 1.82
LTBP3_205 (HAAFLVPLGPGQISA; listed as Homo sapiens) | 2.41
MCFD2_55 (HLEGVINKPEA; listed as Homo sapiens) | 1.13
PTBP1_376 (AAAAAGR; listed as Homo sapiens) | 1.11
FN1_1624 (LVQTAVTTIPAPT; listed as Homo sapiens) | 1.40
LTBP3_221 (VQAPPPVVNVR; listed as Homo sapiens) | 2.72

More lines, now with the values ahead:

logFC.mWT.over.Luc | Substance
2.90 | LTBP2_253 (GEGTLAR; listed as Homo sapiens)
2.27 | THBS1_630 (FGQGVEHATANK; listed as Homo sapiens)
2.18 | ASMT_321 (LSSAGFR; listed as Homo sapiens)
2.11 | PZP_578 (HAHLQVAAAPQSLCALR; listed as Homo sapiens)
2.94 | CTGF_173 (TVVGPALAAYR; listed as Homo sapiens)
2.86 | FN1_1743 (WESPQGQVSR; listed as Homo sapiens)
1.39 | UQCRH_76 (HGSPNNSERAMRAVGE[Met(O)]CKGPGAAR; listed as Homo sapiens)
